The target in the assay is C3 convertase of the alternative pathway (C3bBb) formed on C3b-coated wells (UniProt P01024). Put plainly: cell-based or functional assay.
C3 convertase of the alternative pathway (C3bBb) formed on C3b-coated wells, sequence (P01024 749-1663 limits assumed, chain 1 of 3): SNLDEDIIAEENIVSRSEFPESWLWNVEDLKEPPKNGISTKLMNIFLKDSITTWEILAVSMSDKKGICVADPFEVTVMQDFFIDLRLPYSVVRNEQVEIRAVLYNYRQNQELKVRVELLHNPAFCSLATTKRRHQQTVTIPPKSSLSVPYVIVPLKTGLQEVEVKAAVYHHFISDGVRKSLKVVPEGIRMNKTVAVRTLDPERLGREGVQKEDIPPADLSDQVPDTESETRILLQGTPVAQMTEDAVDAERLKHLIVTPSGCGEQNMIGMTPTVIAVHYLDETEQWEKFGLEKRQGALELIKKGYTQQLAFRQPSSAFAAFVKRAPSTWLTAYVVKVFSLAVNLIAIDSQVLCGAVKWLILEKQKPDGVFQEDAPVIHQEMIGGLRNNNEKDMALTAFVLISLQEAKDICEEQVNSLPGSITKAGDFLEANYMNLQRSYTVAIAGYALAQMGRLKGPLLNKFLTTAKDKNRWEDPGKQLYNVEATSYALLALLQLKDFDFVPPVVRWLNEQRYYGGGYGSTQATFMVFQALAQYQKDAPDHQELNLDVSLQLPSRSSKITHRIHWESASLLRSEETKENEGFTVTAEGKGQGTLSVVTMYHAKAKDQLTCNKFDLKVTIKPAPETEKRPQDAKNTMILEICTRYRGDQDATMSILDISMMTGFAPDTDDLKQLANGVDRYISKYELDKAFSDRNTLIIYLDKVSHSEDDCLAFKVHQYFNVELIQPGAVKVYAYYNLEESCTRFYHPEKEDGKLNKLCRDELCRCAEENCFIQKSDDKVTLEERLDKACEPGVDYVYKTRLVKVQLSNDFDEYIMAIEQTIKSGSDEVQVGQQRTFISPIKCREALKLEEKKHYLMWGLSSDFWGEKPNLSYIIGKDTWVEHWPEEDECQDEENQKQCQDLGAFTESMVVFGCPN
C3 convertase of the alternative pathway (C3bBb) formed on C3b-coated wells, sequence (P01024 23-667 limits assumed, chain 2 of 3): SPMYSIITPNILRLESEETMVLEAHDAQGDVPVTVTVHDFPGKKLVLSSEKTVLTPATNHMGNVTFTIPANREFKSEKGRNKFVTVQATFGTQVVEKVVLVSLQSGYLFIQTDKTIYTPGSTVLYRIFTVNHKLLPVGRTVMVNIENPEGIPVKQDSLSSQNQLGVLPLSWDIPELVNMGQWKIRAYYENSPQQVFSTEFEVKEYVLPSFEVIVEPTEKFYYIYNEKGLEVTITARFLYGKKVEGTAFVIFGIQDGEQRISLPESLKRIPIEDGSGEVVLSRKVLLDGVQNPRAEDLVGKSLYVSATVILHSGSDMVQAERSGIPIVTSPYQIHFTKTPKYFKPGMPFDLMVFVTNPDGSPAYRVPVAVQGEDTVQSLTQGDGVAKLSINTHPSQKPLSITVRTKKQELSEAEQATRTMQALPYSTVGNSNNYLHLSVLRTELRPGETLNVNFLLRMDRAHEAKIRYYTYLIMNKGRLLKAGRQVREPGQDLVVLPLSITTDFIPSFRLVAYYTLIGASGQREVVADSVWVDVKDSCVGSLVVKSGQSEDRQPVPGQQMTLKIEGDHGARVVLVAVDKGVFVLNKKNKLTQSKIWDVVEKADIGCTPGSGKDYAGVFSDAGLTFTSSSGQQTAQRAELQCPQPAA
C3 convertase of the alternative pathway (C3bBb) formed on C3b-coated wells, sequence (P00751 260-764 limits assumed, chain 3 of 3, further chain): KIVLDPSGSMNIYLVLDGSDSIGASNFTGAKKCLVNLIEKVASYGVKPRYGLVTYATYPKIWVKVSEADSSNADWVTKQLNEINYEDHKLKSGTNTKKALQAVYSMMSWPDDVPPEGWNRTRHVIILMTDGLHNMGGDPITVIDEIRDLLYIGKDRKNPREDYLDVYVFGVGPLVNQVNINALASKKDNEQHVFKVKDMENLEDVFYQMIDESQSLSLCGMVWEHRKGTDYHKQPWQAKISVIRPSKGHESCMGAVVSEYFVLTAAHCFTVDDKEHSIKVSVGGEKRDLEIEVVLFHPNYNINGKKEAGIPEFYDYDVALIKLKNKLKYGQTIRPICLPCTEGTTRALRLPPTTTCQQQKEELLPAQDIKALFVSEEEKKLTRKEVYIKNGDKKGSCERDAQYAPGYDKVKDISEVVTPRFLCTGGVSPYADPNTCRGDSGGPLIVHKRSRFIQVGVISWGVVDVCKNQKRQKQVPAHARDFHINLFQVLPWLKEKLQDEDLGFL

On to “Human Factor H Calibrator NL (The Binding Site, Ref: RP030) (from UniProt P08603 19-1231)”, for which the IC50, acceleration of the dissociation of C3 convertase (sample: FH plasma calibrator (The binding site)) stood at 0.0681 µg/mL.

Take “factor H of the pool plasma (ECQ 1) (from UniProt P08603 19-1231)”: the mean IC50 (printed '1050'), acceleration of the dissociation of C3 convertase, pool plasma turned out to be 0.058 µg/mL.

“purified human plasma factor H (batch LFB) (from UniProt P08603 19-1231)”: the IC50, acceleration of the dissociation of C3 convertase (sample: Formulated plasma FH, purified protein) was 0.0179 µg/mL; the IC50, acceleration of the dissociation of C3 convertase (sample: Formulated purified FH plasma) stood at 0.0546 µg/mL; the IC50, acceleration of the dissociation of C3 convertase (sample: Plasma FH PBS 1X) worked out at 0.0152 µg/mL; the IC50, acceleration of the dissociation of C3 convertase (sample: Purified FH plasma PBS 1X) was found to be 0.0438 µg/mL.

Source of the values: patent US20140271603A1.
